Experimental data reported in patent US20190092852A1 (Genentech, published 2019).
“And” between values parts separate entries of the source, which are not always exact repeats. Identical values can stand only once.

Columns and labels:
[1] = target: T1, cyno IL-33 (cell-based blocking assay of Example 2) (cynomolgus monkey, UniProt A0A2K5W3I1 95-269); test: cell-based or functional assay
T1 sequence: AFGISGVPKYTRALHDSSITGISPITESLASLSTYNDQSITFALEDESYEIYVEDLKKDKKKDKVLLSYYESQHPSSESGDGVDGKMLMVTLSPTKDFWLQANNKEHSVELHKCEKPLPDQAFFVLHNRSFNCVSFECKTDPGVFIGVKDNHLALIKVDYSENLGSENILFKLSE

[2] = target: T2, human IL-33 (cell-based blocking assay of Example 2) (human, UniProt O95760 112-270); test: cell-based or functional assay
T2 sequence (looked up): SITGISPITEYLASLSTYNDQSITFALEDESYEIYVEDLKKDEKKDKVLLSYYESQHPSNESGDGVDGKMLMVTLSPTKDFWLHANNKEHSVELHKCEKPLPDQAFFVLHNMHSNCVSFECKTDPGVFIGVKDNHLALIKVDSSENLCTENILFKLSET

[3] = target: T3, human IL-33 (Genentech, huIL33.his) (human, UniProt O95760 112-270); test: SPR Biacore
T3 sequence (looked up): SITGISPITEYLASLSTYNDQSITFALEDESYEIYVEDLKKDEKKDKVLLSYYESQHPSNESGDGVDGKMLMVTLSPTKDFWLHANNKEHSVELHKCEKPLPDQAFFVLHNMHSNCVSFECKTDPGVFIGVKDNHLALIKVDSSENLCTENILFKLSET

[4] = target: T4, cyno IL-33 (construct not stated) (cynomolgus monkey, UniProt A0A2K5W3I1 112-269); test: SPR Biacore
T4 construct: also called cynomolgus IL-33; cyno IL-33 (Genentech)
T4 sequence: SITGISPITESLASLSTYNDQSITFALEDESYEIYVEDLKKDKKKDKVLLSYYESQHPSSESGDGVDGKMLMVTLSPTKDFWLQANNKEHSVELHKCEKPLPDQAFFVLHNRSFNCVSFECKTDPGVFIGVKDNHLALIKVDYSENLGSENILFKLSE

cyno IL-33 N-His [5] = target: T5, cyno IL-33 N-His (cynomolgus monkey); test: SPR Biacore T200, 25 C
T5 chain: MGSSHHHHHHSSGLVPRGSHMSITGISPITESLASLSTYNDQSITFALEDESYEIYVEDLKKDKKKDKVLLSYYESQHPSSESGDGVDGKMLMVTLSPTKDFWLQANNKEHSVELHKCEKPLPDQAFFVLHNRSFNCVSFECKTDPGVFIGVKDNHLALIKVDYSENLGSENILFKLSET
Description: (§1) The binding kinetics of the anti-IL-33 antibody 10C12.38.H6.87Y.58I IgG4 and each anti-IL-33 antibody listed in Table 5 (RG1-RG20) to IL-33 were measured using surface plasmon resonance (SPR) on a BIACORE® T200 instrument (GE Healthcare). Anti-human Fc or anti-murine Fc (GE Healthcare, #BR-1008-39 or BR-1008-38, respectively) was immobilized on a CM5 sensor chip via amine-based coupling according to the manufacturer's protocol. Surfaces were used to capture monoclonal human IgG4 and monoclonal murine IgGs for kinetic studies. Antibody binding was measured to human IL-33 (R&D systems, #3625-IL-010/CF) and cyno IL-33 N-His (SEQ ID NO: 317) (Genentech, Inc.). A three-fold concentration series of cytokine with a range of 3.7 to 100 nM was used for the experiments. Sensograms for binding of IL-33 were recorded using an injection time of 4 min with a flow rate of 30 μl/minute with a running buffer of 0.01 M N-(2-Acetamido)iminodiacetic acid (ADA) pH 7.4, 0.15 M NaCl, 3 mM EDTA, and 0.05% TWEEN®-20. After injection, disassociation of the ligand from the antibody was monitored for 10 min in running buffer. The surface was regenerated in between cycles with an injection of 3 M magnesium chloride or Glycine-HCl pH 1.7. All binding experiments were performed at a temperature of 25′C and 37° C. After subtraction of a blank which contained running buffer only, sensograms observed for IL-33 binding to anti-IL-33 antibodies were analyzed using a 1:1 Langmuir binding model with software supplied by the manufacturer to calculate the kinetics and binding constants, including the dissociation constant (KD). Dissociative half-lives (t_{1/2}) were calculated from the kinetic rate constants. KD (M)=koff/kₒₙ and t_{1/2} (min)=ln(2)/(60*koff). […] In Tables 6-9, *IC indicates the result is inconclusive due to weak capture of antibody was observed, leading to poor binding data.

[6] = target: T6, cynomolgus monkey N-terminal 6-His-tagged and C-terminal Avi-tagged IL-33 (S112-T270) (cynomolgus monkey); test: cell-based or functional assay
T6 chain: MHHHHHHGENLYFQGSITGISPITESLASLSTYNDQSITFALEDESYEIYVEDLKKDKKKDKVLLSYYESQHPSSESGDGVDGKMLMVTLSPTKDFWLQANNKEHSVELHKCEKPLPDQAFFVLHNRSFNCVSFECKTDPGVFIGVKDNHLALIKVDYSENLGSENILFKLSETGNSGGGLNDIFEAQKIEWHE

cyno IL-33 N-His [7] = target: T5, cyno IL-33 N-His; test: SPR Biacore T200, 37 C
Description: as §1

biotinylated cyno IL-33 = target: T7, biotinylated cyno IL-33 (cynomolgus monkey, UniProt A0A2K5W3I1 112-269, biotin-labeled with EZ-LINK NHS-PEG4-Biotin); test: competitive ELISA, biotin-cyIL-33 to coated hST2-Fc
T7 construct: also called biotin-cyIL-33
T7 sequence: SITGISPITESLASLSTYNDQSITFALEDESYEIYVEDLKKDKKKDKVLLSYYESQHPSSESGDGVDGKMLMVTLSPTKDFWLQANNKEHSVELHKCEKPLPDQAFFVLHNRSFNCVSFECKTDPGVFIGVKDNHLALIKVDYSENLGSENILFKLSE
Description: The ability of the anti-IL-33 antibody 10C12.38.H6.87Y.58I IgG4 and each anti-IL-33 antibody listed in Table 5 (RG1-RG20) to block either human IL-33 or cyno IL-33 binding to human ST2 receptor was tested in a competitive binding ELISA. Briefly, 1 μg/ml of recombinant human ST2-Fc chimera protein prepared in coating buffer (50 mM sodium carbonate, pH 9.6) was coated on a 384-well MAXISORP® plate (Nalgene Nunc International; Rochester, N.Y.) and incubated overnight at 4° C. On the next day, non-specific binding was blocked with PBS containing 0.5% (w/v) solution of bovine serum albumin (BSA). Fixed concentrations of biotinylated human or cyno IL-33 prepared in assay buffer (25 mM PBS, pH 7.2, 0.1% BSA, 0.05% TWEEN®-20) were mixed with an equal volume of serially-diluted anti-IL-33 antibodies or assay buffer alone and incubated for 1 h at room temperature. The final assay concentrations of biotinylated human IL-33 or cyno IL-33 were 20 pM and 45 pM, respectively, and the final assay concentration of each antibody ranged from 0-300 nM. The pre-mixed solutions were added to the ST2-Fc coated plate and incubated for 1 h at room temperature. The binding of biotinylated IL-33 to coated ST2-Fc was detected by the sequential addition of Streptavidin Poly-HRP80 (Fitzgerald; Buckinghamshire, UK) and 3,3′,5,5′-tetramethyl benzidine (TMB) Microwell Peroxidase Substrate System (KPL; Gaithersburg, Md.). The absorbance (450 nm) was recorded using a […] ASCENT® plate reader (Thermo Scientific; Rockford, Ill.). The binding activity (%) of biotin-IL-33 to ST2 in the presence of anti-IL-33 was plotted as a function of antibody concentration. The data generated were fitted to a four-parameter equation to determine IC₅₀ values for each antibody (FIGS. 25A and 25B) using Prism software (Graphpad Software; La Jolla, Calif.). The maximum blocking (%) of each antibody was calculated as the ratio of the reduction in signal measured in the presence of antibody relative to the difference between the signal with IL-33 alone and background measurements.

| Binder | Cell assay (cy) IC90 [1] | Cell assay (hu) IC90 [2] | Kd [3] [nM] | Kd [4] [nM] | Kd (cyno IL-33 N-His [5]) [nM] | koff (cyno IL-33 N-His [5]) [s⁻¹] | kon (cyno IL-33 N-His [5]) [M⁻¹ s⁻¹] | t1/2 (cyno IL-33 N-His [5]) [min] | IC50; SEAP reporter (OD 620), HEK-BLUE IL-33/IL-1beta cells, 5 pM cyno IL-33 (5pM cIL-33-Nhis) [6] [M] | Kd (cyno IL-33 N-His [7]) [nM] | koff (cyno IL-33 N-His [7]) [s⁻¹] | kon (cyno IL-33 N-His [7]) [M⁻¹ s⁻¹] | t1/2 (cyno IL-33 N-His [7]) [min] | IC50 (biotinylated cyno IL-33) [nM] | Maximum Blocking (biotinylated cyno IL-33) [%] |
| --- | --- | --- | --- | --- | --- | --- | --- | --- | --- | --- | --- | --- | --- | --- | --- |
| 4G12.FW4 (antibody, V domains shown, Derivative of 4G12) VH: ELQLQESGPGLVKPSETLSLTCTVSGGSIRSSIFYWGWIRQPPGKGLEWIGSIYYSGRTYYNPSLKSRVTISVDTSKNQFSLMLTSVTAADTAVYYCARAGGLYNWNDESFSFYMDVWGQGTTVTVSS VL: EIVLTQSPGTLSLSPGERATLSCRASQSFSSSYLAWYQQKPGQAPRLLIYGASSRATGIPDRFSGSGSGTDFTLTISRLEPEDFAVYYCQQYDRSPLTFGGGTKVEIK | 0.034 µg/mL and 0.224 nM | 0.17 µg/mL and 1.12 nM | 0.038 | 0.07 | – | – | – | – | – | – | – | – | – | – | – |
| 101.B11 (antibody, V domains shown, Transgenic mouse / phage display) VH: QVQLVQSGGGLVQPGGSLKLSCAASGFTFSGSAMHWVRQASGKGLEWVGRIRSRNNNYATAYAASVKGRFTISRDDSKRTTYLQMNSLKTEDTAVYYCTRLQQPPFDYWGQGTLVTVSS VL: DIQMTQSPSSLSASVGDRVTITCRASQGIRNDLDWYQQKPGKAPKRLIYAASSLQSGVPSRFNGSGSGTEFTLTISSLQPEDFATYYCLQHDSYPLTFGGGTKVEIK | – | 0.3 µg/mL | 0.527 | 0.783 | – | – | – | – | – | – | – | – | – | – | – |
| H4H9660P (antibody, V domains shown) VH: EVQLVESGGGLVQPGGSLRLSCAASGITLSSYGMSWVRQAPGKGLEWVASIFGSGGGPYYADSVKGRFTMSRDNSKNTLYLQMNSLRAEDTAVYYCAKDRYSGSYYGGFDYWGRGTLVTVSS VL: DIQMTQSPSSVSASVGDRVTITCRASQGITSWLAWYQQKPGKAPTLLIYAASSLQTGVPSRFSGSGSGTDFTLTISSLQPEHFATYYCQQANSFPPTFGGGTKVEIK | – | – | – | – | 2.69 | 0.00064 | 238000 | 18 | 4.8e-08 | 7.93 | 0.00305 | 385000 | 4 | 120 | 18 |
| H4H9663P (antibody, V domains shown) VH: QVQLVQSGAEVKKPGASVKVSCKASGYTFTGHYMYWMRQAPGQGLEWMGWINPNSGGTNYAQKFQDRVTMTRDTSISTAYMELSRLRSDDTAVYYCARGRYGSSWYGGFEYWGQGTLVTVSS VL: DIQMTQSPSSVSASVGDRVTITCRASQGITSWLAWYQQKPGKAPNLLIYAAASLQSGVPSRFSGSGSGTDFTLTISSLQPEDFTTYYCQQAYSLPLTFGGGTKVEIK | – | – | – | – | 1.07 | 0.000545 | 511000 | 21 | 2.3e-08 | 1.03 | 0.00202 | 1.96e+06 | 6 | 26 | 61 |
| H4H9665P (antibody, V domains shown) VH: EVQLVESGGGLVQPGGSLRLSCAASGFTFSNYAMTWVRQAPGKGLEWVSTISGSGDNTYYADSVQGRFTISRGHSKNTLYLQMNSLRAEDTAVYYCAKPTYSRSWYGAFDFWGQGTMVTVSS VL: DIQMTQSPSSVSASVGDRVTITCRASQGISSWLAWYQQKPGKAPQLLIYAASRLQSGVPSRFWGSGSGTDFTLTISSLQPEDFATYYCQQANNFPFTFGPGTKVDIK | – | – | – | – | 0.976 | 0.000426 | 437000 | 27 | 1.1e-08 | 1.96 | 0.00142 | 727000 | 8 | 19 | 53 |
| H4H9671P (antibody, V domains shown) VH: EVQLVESGGGLVQPGGSLRLSCAASGFTLRSYFMTWVRQVPGKGLEGVSAISGISGGTYYTDSVKGRFTISRDNSKNTLFLQMNSLRAEDTAVYFCARTVYSSSYYGGFQHWGQGTLVTVSS VL: DIQMTQSPSSVSVSVGDRVTITCRASQGISSWLAWYQQKPGKAPKLLIYVASSLQSGVPSRFSGSGSGTDFTLTISSLQPEDFATYYCQQTNSFPLTFGGGTKVEIK | – | – | – | – | 1.72 | 0.000915 | 533000 | 13 | 5e-08 | 3.66 | 0.00326 | 890000 | 4 | 70 | 40 |
| H4H9662P (antibody, V domains shown) VH: EVQLVESGGGLVQPGGSLRLSCAASGFTFSSYALTWVRQAPGKGLEWVSFISGSGGRPFYADSVKGRFTISRDNSKNMLYLQMNSLRAEDTAIYYCAKSLYTTSWYGGFDSWGQGTLVTVSS VL: DIQMTQSPSSVSASVGDRVTITCRASQGVVSWLAWYQQKPGKAPKLLIYAASSLQSGVPSRFSGSGSGTDFTLTISSLQPEDFATYYCQQSNSFPFTLGPGTKVDIK | – | – | – | – | 1.28 | 0.000313 | 245000 | 37 | 3.4e-08 | 2.31 | 0.00112 | 484000 | 10 | 66 | 47 |
